# Measured values published in the supplement of paper PMC9170038.
# Test system: MS2 coat protein
# Assay: apparent KD of MS2 coat protein; higher = weaker reporter binding
# Details: Eterna round: R107; input ligand: theophylline 20 uM
# How it was run: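 For every design, apparent KD is the median of normalised binding-curve fits from its clusters. The RNA switches were transcribed on-chip from Illumina sequencing clusters and titrated with SNAP-549-labelled MS2 coat protein (twofold steps, 0.7 or 1.5 nM to 3 µM; 0.8–1.5 h to 10–20 min per step). Titrations used 100 mM Tris-HCl pH 7.5, 80 mM KCl, 4 mM MgCl2, without or with constant ligand.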
row,Sequence,apparent KD of MS2 coat protein [nM]
1,ACAUUUAACUGAAGGAGCGUGAUAUUUACAUGAGGAUCACCCAUGUCUAUCAUGAGAUAUUCACAGGUAGGUCGCAGACUAAUGA [JR_ExcArginiB_Sub005],40.9
2,GUCCUCAUGACGGCCGCCACUACACAUGAGGAUCACCCAUGUAAUGAUCCCUUAAAUGAUAAUAGUAGGACCGGGUCACUGUAAG [Same State Typptophan B GF12],569
3,ACAUCCAGGUUAAUCGUGGGCAUGGUCGAUACCAGUAUUUUAAUCUACCCUUGGCAGCGACAUGAGGAUCACCCAUGUGCGAUGA [XTheo A #13],33.7
4,GGUUACUCUACGGCCGCCACUGUAAUGUAAAGAUACCUGUACAUGACAUGAGGAUCACCCAUGUGCAGGACCGGGUAGUGUAACC [Tryptophan B 19],93.6
5,GCUGCUUUGGGAAGGAGCGCUGUGGUAGUGUGGCGGACAUGAGGAUCACCCAUGUGCCUGCAGCAGGUAGGUCGCUUAGGGCAGC [EAP NP+V+V2 #16],37.9
6,GGUCGCCUACAUGGGUAGGCGAUUUUGGAAGGAGCGAGCGAGAGCUCAGGUAGGUCGCCAGCACAUGAGGAUCACCCAUGUUUUU [SSArg-A #25 Weakened 1st state],20.9
7,AAAAUAAAUAAAACACGUAACAUGAAGGAUACCAGACCGGAAACGGUCCCUUGGCAGCCUCUACAUGAGGAUCACCCAUGUCGUG [Mat - Same State Theophlline A - Mod of Eli - D18],141
8,AGUAAUCUAACAGAUACCAGACGGUAUAUAACAUGAGGAUCACCCAUGUCUUGGGUGUACGUCCCUUGGCAGCUGAAAAUGAUAA [JR_SSTheophyB_Sub001],551
9,AUACAUGAGGAUCACCCAUGUUAUAGUGAAGGAGCGACAUUUAGGUCAGGUAGGUCGCACUAUUGAAUUAUUAUCCUUAUUUCUU [JR_ExcArginiA_Sub020],22
10,CAUACUUUAUCCUAUGAGCCUAUUUGUGAUACCAGCAUCUAAAUUUGCCCUUGGCAGCACUUACAUGAGGAUCACCCAUGUUUUA [JR_NU_SSTheophyA_Sub028],33.6
11,CGCCACAUGAGGAUCACCCAUGUCUUGGCGCGAGGACCGGUACGGCCGCCACUCGCGUUUCAGUGAGCGCAUGCGUCCUUGGUAU [Exclusion Tryp A GF10],27
12,AAUACCGGUCCUCGAAGGUGAUCCUCAUAACGAGGACCGGUACGGCCGCCACUCGAUAACAUGAGGAUCACCCAUGUAAUAAUAA [|T'-M'-Trp-Ms2|_Design6],175
13,UUCAAAGGGAACGGUGCUGGUGACAGAGAUACCAGCGCGGUAACGCGCCCUUGGCAGCUCAGAACAUGAGGAUCACCCAUGUAAU [Exclusion Theophylline A GF23],20.7
14,AGUGUUGUAACUGAUACCAGACCUUUGCUUAUACAUGAGGAUCACCCAUGUAAAAUGGCGGUCCCUUGGCAGCAGAGAAGACGCA [#10 Same State - Theophylline B],27
15,GGGCGCUAUCCCGCGAGGGAUAGCGUUCUUCGAGGACCGGUACGGCCGCCACUCGAACGAGUGGUGACAUGAGGAUCACCCAUGU [Paa],75
16,UGUAUGGACUGAAGGAGCGCCUCAAAACAUGAGGAUCACCCAUGUGGACAAUAAGUCCUUGGGCAGGUAGGUCGCAGUCCAUACU [ArgBX 6 #StaticStem #MS2Late],84.6
17,AGUUAAAUAUGUUAAUAACUAUUUACUGAAGGAGCGUGUUUUGACACAGGUAGGUCGCAGUGACAUGAGGAUCACCCAUGUCGUA [#08 Same State - Arginine A],21.8
18,CUAUGGAUAAGAAGGAGCGUCGAAAAUGGGUAAACAUGAGGAUCACCCAUGUAAAGGGAACGACAGGUAGGUCGCUUAUUUAUAG [AstromonsSSArgB#7],190
19,UAUAUAUAGGGAAGGAGCGGGAACAUGAGGAUCACCCAUGUACAUGAGGAUCACCCAUGUACCCAGGUAGGUCGCCCAUAUAUAU [Exclusion - Arginine B],227

# Same assay, conditions: Eterna round: R107; input ligand: theophylline 2 mM
row,Sequence,apparent KD of MS2 coat protein [nM]
1,AUACAUGAGGAUCACCCAUGUCAUACAGAAGGAGCGUCAUAUUAGACAGGUAGGUCGCUGUAAUUUUUAUUAUUCUUUAUGUAUU [JR_Nu_ExcArginiA_Sub026],26.9
2,UGAAAGUAGGGAAGGAGCGCUACAACAUGAGGAUCACCCAUGUUAUGAGGAUCACCCGUGUGGCAGGUAGGUCGCCCAAAACAUG [#13 Same State - Arginine B],35.6
3,CUUGAGACAUGAGGAUCACCCAUGUCCGAAGGAGCGUGCGAAAGCACAGGUAGGUCGCGGACGUGAGGAUCUCCCAUGUGAGCGA [#25 Exclusion - Arginine A],25.7
4,GGCACAUAGUCGGCCGCCACUAGAAUAAGAAGGGAAAACAUGAGGAUCACCCAUGUAAAAGGGACUAGGACCGGGACUAUGUGCC [Shrew],17
5,AGCUCGCAUCCUCUAGCGUCAAAGACGCGUCGAGGACCGGUACGGCCGCCACUCGACUUGAGGAUCACCCAAGUCUAAGCGAGCA [TrypAX 11 #SwitchBubble #AlternativeMS2 #MS2Late #CuTurnoff],215
6,CAUGGCUGUGCGGCCGCCACUGGCUCAUCCUGCAUUACAUGAGGAUCACCCAUGUUGCGGCCUCCCAGGACCGGGCAUAGCCUGA [Abediat],571
7,ACAUGAGUGGAUAAUAAAUAAGAAGGCGAAGGAGCGUGAAGAAUCACAGGUAGGUCGCGCAAAAUACAUGAGGAUCACCCAUGUU [JR_Nu_ExcArginiA_Sub031],29.8
8,AGGAAAACAUGAGCAAAGCUCAUGUGCGAAGGAGCGGCGGAAACGCCAGGUAGGUCGCGCACAUGAGCAUCAGCCAUGUGUAUCA [Omei Arginine B SS A v4],409
9,AAACAUGAGGAUCACCCAUGUUCUCGUGUCCGAGGACCGGUACGGCCGCCACUCGGUUCUCGCGAGGAUGGUCAAAGACUAUCCA [Omei Trp A SS B v6],46.6
10,AGAGUCAGACAAAAGUCUGGCUCAGCCGAAGGAGCGUCCGAAAGGACAGGUAGGUCGCGGUUCCAUGAGGAUCACCCAUGGUCCU [ArgAS 28 #OpenEnded #AlternativeMS2],119
11,AUACAUGAGGAUCACCCAUGUAUAGAUGAAGGAGCGACCAGAGGGUCAGGUAGGUCGCAUCACAUGAGGAUCACCCAUGUACUUA [DOUBLE!!! :-D #9],42.7
12,UGGCGAGAAGGAAGGAGCGUCAGCUGAGUCACAUGAGGAUCACCCAUGUAGGACAUGGUGUGACAGGUAGGUCGCCUUCUGCCCU [SS-ArgB18],22.5
13,ACGUAAUGCAGAAGGAGCGUCAACCUCUUACAUGAGGAUCACCCAUGUUACAUGGUUGUAUGACAGGUAGGUCGCUGAAGUACGA [JR_ExcArginiB_Sub001],50.4
14,ACAUUUAACUGAAGGAGCGUGAUAUUUACAUGAGGAUCACCCAUGUCUAUCAUGAGAUAUUCACAGGUAGGUCGCAGACUAAUGA [JR_ExcArginiB_Sub005],46.9
15,GUCCUCAUGACGGCCGCCACUACACAUGAGGAUCACCCAUGUAAUGAUCCCUUAAAUGAUAAUAGUAGGACCGGGUCACUGUAAG [Same State Typptophan B GF12],743
16,GGUUACUCUACGGCCGCCACUGUAAUGUAAAGAUACCUGUACAUGACAUGAGGAUCACCCAUGUGCAGGACCGGGUAGUGUAACC [Tryptophan B 19],70
17,GCUGCUUUGGGAAGGAGCGCUGUGGUAGUGUGGCGGACAUGAGGAUCACCCAUGUGCCUGCAGCAGGUAGGUCGCUUAGGGCAGC [EAP NP+V+V2 #16],40.1
18,GGUCGCCUACAUGGGUAGGCGAUUUUGGAAGGAGCGAGCGAGAGCUCAGGUAGGUCGCCAGCACAUGAGGAUCACCCAUGUUUUU [SSArg-A #25 Weakened 1st state],21.8
19,AUACAUGAGGAUCACCCAUGUUAUAGUGAAGGAGCGACAUUUAGGUCAGGUAGGUCGCACUAUUGAAUUAUUAUCCUUAUUUCUU [JR_ExcArginiA_Sub020],15.5
20,CGCCACAUGAGGAUCACCCAUGUCUUGGCGCGAGGACCGGUACGGCCGCCACUCGCGUUUCAGUGAGCGCAUGCGUCCUUGGUAU [Exclusion Tryp A GF10],20.3
